The results in this text go back to patent US20160215067A1 (CASE WESTERN RESERVE UNIVERSITY, published 2016).

One may read the IC50 as the midpoint of a concentration-inhibition curve. Higher therefore signals weaker potency in that assay. As usually defined, the koff is the first-order rate constant of dissociation. A higher koff goes with fast dissociation. One may read the kon as the second-order rate constant of association. A low value points to slower complex formation.

Where only a bound is given, the exact number is not on record here.

Experiment [1] deals with anti-CEP humanized antibody (anti-CEP huAb), full length. In words: competitive ELISA, CEP-BSA coated, inhibitor preincubated with anti-CEP huAb. (In an ELISA, binding on a coated surface is turned into a signal by an enzyme label.)
Experiment [2] shares this target. In words: competitive ELISA, CEP-BSA coated.
In experiment [3] the target is T1, CEP-modified human serum albumin (CEP-HSA) (human, UniProt P02768 25-609, 2-(omega-carboxyethyl)pyrrole (CEP) derivatives of primary amino groups; sites and number not stated).
T1 construct: The antibodies recognise the CEP hapten on the carrier protein
The experiment is described as follows: BIAcore SPR, single-cycle kinetics; CEP-HSA immobilised as ligand, antibody as analyte [panel A, table under the sensorgram].

In experiment [4] the target is T1, CEP-modified human serum albumin …. The experiment is described as follows: BIAcore 3000, CEP-HSA immobilized on CM5 chip, single-cycle kinetics, bivalent fit.
Description: (§1) The binding affinity of each antibody was measured using BIAcore technology.
Experiment [5] shares this target. In words: BIAcore, CEP-HSA on chip. For orientation: In SPR one partner is held on a chip, and binding of the other changes the refractive index at the surface.
Description: as §1
The target is the same in experiment [6]. In words: BIAcore SPR, single-cycle kinetics; CEP-HSA immobilised as ligand, antibody as analyte [panel B, table under the sensorgram].
Description: as §1
Experiment [7] has the same target. In words: BIAcore single-cycle kinetic analysis.
Experiment [8] shares this target. The experiment is described as follows: BIAcore SPR, single-cycle kinetics; CEP-HSA immobilised as ligand, antibody as analyte [table under the sensorgram].

The molecule CPP-HSA (from UniProt P02768 25-609) gave an IC50 in experiment [1] of 10.5 µM.
In the case of CHP-BSA (from UniProt P02769 25-607), the 50% inhibitory concentration (IC50) in experiment [1] was 4690 µM. This molecule also had a fold lower cross-reactivity than with anti-CEP mumAb in experiment [2] of less than 10 fold.
For “CEP-modified human serum albumin (CEP-HSA) (from UniProt P02768 25-609)”, the concentration for half-maximal inhibition (IC50) in experiment [1] was found to be 0.0056 µM.

B1: anti-CEP murine monoclonal antibody (anti-CEP mumAb), hybridoma clone 2D3.3G9-1 (antibody, mouse IgG2a, V domains shown)
VH: QIQLIQSGPELKKPGETVKISCKPSGYAFTKYGMDWVKQAPGEGLKWMGRINTYTGEPTYADDFKGRFAFSLEASASTAYLQINNLKNEDTATYFCARRRDGYPFAYWGQGTLVTVSS
VL: DIVMTQSHKFMSTSVRDRVSITCKASQDVSTAVAWYQQKPGQSPKILIYSASYRFPGVPDRFTGSGSGTDFTFTISSVQAEDLAVYYCHQHYFIPYTFGGGTKLEIK
notes: also called murine anti-CEP mAb; mouse counterpart
B1: in experiment [3], the koff was determined as 0.00377 s⁻¹ and the kon was 2.36e+07 M⁻¹ s⁻¹. For the same molecule, in experiment [4], the Kd stood at 0.00016 µM.

B2: anti-CEP humanized antibody (anti-CEP huAb), full length (antibody, human IgG1, V domains shown)
VH: QVQLVQSGAEVKKPGASVKVSCKASGYAFTKYGMDWVRQAPGQGLEWMGRINTYTGEPTYADDFKGRVTITADTSTSTAYMELSSLRSEDTAVYYCARRRDGYPFAYWGQGTLVTVSS
VL: DIVMTQSPDSLAVSLGERATINCKASQDVSTAVAWYQQKPGQPPKLLIYSASYRFPGVPDRFSGSGSGTDFTLTISSLQAEDVAVYYCHQHYFIPYTFGGGTKLEIK
notes: Human IgG1 heavy constant region (vector pFUSE-CHIg-hG1) and human kappa constant region (pFUSE2-CLIg-hk); expressed in CHO-S cells, clone A1; also called original anti-CEP huAb; anti-CEP humAb
For the molecule B2, the “fold weaker affinity than anti-CEP mumAb” value in experiment [5] was roughly 10 fold. In experiment [4], this molecule registered a Kd of 0.00158 µM. Moreover, in experiment [6], the off-rate constant (koff) was determined as 0.00025 s⁻¹ and the kon was found to be 159000 M⁻¹ s⁻¹.

B3: Mutant 2F1, full length anti-CEP huAb mutant (antibody, V domains shown)
VH: QVQLVQSGAEVKKPGASVKVSCKASGYALTKYGMDWVRQAPGQGLEWMGRINTYTGEPTYADDFKGRVTITADTSTSTAYMELSSLRSEDTAVYYCARRRGGYPFAYWGQGTLVTVSS
VL: DIVMTQSPDSLAVSLGERATINCKASQDVSTAVAWYQQKPGQPPKLLIYSASYRFPGVPDRFSGSGSGTDFTLTISSLQAEDVAVYYCHQHYFIPYTFGGGTKLEIK
Turning to B3, in experiment [7], the Kd is 0.00074 µM and the “fold stronger affinity than original anti-CEP huAb” value was roughly 2 fold. Moreover, in experiment [8], the off-rate constant (koff) amounted to 0.000228 s⁻¹ and the kon stood at 308000 M⁻¹ s⁻¹.
